Results: PMC3062784 (Biochimica et Biophysica Acta, 2011)
Several values for one entry are separate records, joined by “and”; a condition that tells them apart may be missing. Equal entries are not always repeated.

Columns and labels:
native gel or EMSA = molecular target: the molecule itself; experiment: native gel or EMSA
cross-linking = molecular target: the molecule itself; experiment: cross-linking

B1: C-terminally triple HA-tagged Pun1p expressed via the MET25 promoter from plasmid YEpM-PUN1-HA (natural protein, S. cerevisiae, UniProt Q06991 1-263, looked up)
chain: MRNFFTLFFAAIFSLGALILAIVACAGSTKNYSPINKIYCAELDLSQMKVSTVLPSLSSATLSSLGLPSYINIGLWSYCTVDSSHNIQSCSSPHGIQNFNLSSLVYDNINNNEALELMDSVASVVLPEKLKSKMTYYNNLVKCMFITILIGIVLTFVNLVFNVLRWIIHIRPLTWFGAFFSFFAFAALLVSIGSCLGTYSYIKYILKHNYSDYGISMSIGRNYQGLMWGAVVGALLNFILWCSVRSRPTVIYANAPIEEKPLI
In the case of B1, the “stoichiometry N” value (native gel or EMSA) is reported as 10 and 12 and 8 and the “stoichiometry N” value (cross-linking) is reported as 2 and 4 and 6.
